Experimental data: the supplement of paper PMC5998384

What was measured:
[1] = test system: HeLa Kyoto; assay: solubility in G1/S (NP-40 vs SDS abundance) (log2 ratio); higher = more soluble; settings: cell cycle stage: G1/S
[2] = test system: HeLa Kyoto; assay: melting temperature (median over replicates), in situ; higher = more thermally stable
[3] = test system: HeLa Kyoto; assay: solubility change mitosis vs G1/S (difference of NP-40 vs SDS log2 ratios) (log2 ratio difference); higher = more soluble in mitosis
[4] = test system: HeLa Kyoto; assay: thermal stability score vs G1/S (z-score of summed log2 fold changes over temperatures); higher = more thermally stable than in G1/S
[5] = cell cycle stage: early G1 (4.5 h after nocodazole release)
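For melting temperature (median over replicates), in situ in this document: HeLa Kyoto cells synchronized by double thymidine or nocodazole block, proteins quantified by TMT10plex mass spectrometry, three independent biological replicates.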
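For solubility change mitosis vs G1/S (difference of NP-40 vs SDS log2 ratios) in this document: synchronized HeLa Kyoto cells (double thymidine block for G1/S, nocodazole release for mitosis), protein amounts in NP-40 versus SDS lysates quantified by mass spectrometry, three biological replicates.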
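For solubility in G1/S (NP-40 vs SDS abundance) in this document: HeLa Kyoto cells arrested at G1/S by double thymidine block, proteins quantified by TMT10plex mass spectrometry in mild NP-40 versus SDS extracts, three biological replicates.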
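For thermal stability score vs G1/S (z-score of summed log2 fold changes over temperatures) in this document: synchronized HeLa Kyoto cells, proteins quantified by TMT10plex mass spectrometry, three biological replicates, mitosis taken 0.5 h after nocodazole release, G1/S directly after double thymidine block.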

Substance	solubility in G1/S (log2) [1]	melting temperature ([2]; cell cycle stage: G1/S) [°C]	melting temperature ([2]; cell cycle stage: mitosis) [°C]	solubility change mitosis (log2) [3]	thermal stability score [4, 5]	thermal stability score ([4]; cell cycle stage: mitosis)
MAVVPLLLLGGLWSAVGASSLGVVTCGSVVKLLNTRHNVRLHSHDVRYGSGSGQQSVTGVTSVDDSNSYWRIRGKSATVCERGTPIKCGQPIRLTHVNTGRNLHSHHFTSPLSGNQEVSAFGEEGEGDYLDDWTVLCNGPYWVRDGEVRFKHSSTEVLLSVTGEQYGRPISGQKEVHGMAQPSQNNYWKAMEGIFMKPSELLKAEAHHAEL [SDF2]	0.097	54.3	54.1	-0.129	4.15	3.09
ERH	-2.12	52.5	51.6	0.912	-4.51	-3.17
SMCHD1	-0.216	47.4	48.7	-0.104	3.02	5.78
MAAAAGAAAAAAAEGEAPAEMGALLLEKETRGATERVHGSLGDTPRSEETLPKATPDSLEPAGPSSPASVTVTVGDEGADTPVGATPLIGDESENLEGDGDLRGGRILLGHATKSFPSSPSKGGSCPSRAKMSMTGAGKSPPSVQSLAMRLLSMPGAQGAAAAGSEPPPATTSPEGQPKVHRARKTMSKPGNGQPPVPEKRPPEIQHFRMSDDVHSLGKVTSDLAKRRKLNSGGGLSEELGSARRSGEVTLTKGDPGSLEEWETVVGDDFSLYYDSYSVDERVDSDSKSEVEALTEQLSEEEEEEEEEEEEEEEEEEEEEEEEDEESGNQSDRSGSSGRRKAKKKWRKDSPWVKPSRKRRKREPPRAKEPRGVNGVGSSGPSEYMEVPLGSLELPSEGTLSPNHAGVSNDTSSLETERGFEELPLCSCRMEAPKIDRISERAGHKCMATESVDGELSGCNAAILKRETMRPSSRVALMVLCETHRARMVKHHCCPGCGYFCTAGTFLECHPDFRVAHRFHKACVSQLNGMVFCPHCGEDASEAQEVTIPRGDGVTPPAGTAAPAPPPLSQDVPGRADTSQPSARMRGHGEPRRPPCDPLADTIDSSGPSLTLPNGGCLSAVGLPLGPGREALEKALVIQESERRKKLRFHPRQLYLSVKQGELQKVILMLLDNLDPNFQSDQQSKRTPLHAAAQKGSVEICHVLLQAGANINAVDKQQRTPLMEAVVNNHLEVARYMVQRGGCVYSKEEDGSTCLHHAAKIGNLEMVSLLLSTGQVDVNAQDSGGWTPIIWAAEHKHIEVIRMLLTRGADVTLTDNEENICLHWASFTGSAAIAEVLLNARCDLHAVNYHGDTPLHIAARESYHDCVLLFLSRGANPELRNKEGDTAWDLTPERSDVWFALQLNRKLRLGVGNRAIRTEKIICRDVARGYENVPIPCVNGVDGEPCPEDYKYISENCETSTMNIDRNITHLQHCTCVDDCSSSNCLCGQLSIRCWYDKDGRLLQEFNKIEPPLIFECNQACSCWRNCKNRVVQSGIKVRLQLYRTAKMGWGVRALQTIPQGTFICEYVGELISDAEADVREDDSYLFDLDNKDGEVYCIDARYYGNISRFINHLCDPNIIPVRVFMLHQDLRFPRIAFFSSRDIRTGEELGFDYGDRFWDIKSKYFTCQCGSEKCKHSAEAIALEQSRLARLDPHPELLPELGSLPPVNT [EHMT2]	-0.563	50.1	49.9	0.189	1.11	1.87
MNVVFAVKQYISKMIEDSGPGMKVLLMDKETTGIVSMVYTQSEILQKEVYLFERIDSQNREIMKHLKAICFLRPTKENVDYIIQELRRPKYTIYFIYFSNVISKSDVKSLAEADEQEVVAEVQEFYGDYIAVNPHLFSLNILGCCQGRNWDPAQLSRTTQGLTALLLSLKKCPMIRYQLSSEAAKRLAECVKQVITKEYELFEFRRTEVPPLLLILDRCDDAITPLLNQWTYQAMVHELLGINNNRIDLSRVPGISKDLREVVLSAENDEFYANNMYLNFAEIGSNIKNLMEDFQKKKPKEQQKLESIADMKAFVENYPQFKKMSGTVSKHVTVVGELSRLVSERNLLEVSEVEQELACQNDHSSALQNIKRLLQNPKVTEFDAARLVMLYALHYERHSSNSLPGLMMDLRNKGVSEKYRKLVSAVVEYGGKRVRGSDLFSPKDAVAITKQFLKGLKGVENVYTQHQPFLHETLDHLIKGRLKENLYPYLGPSTLRDRPQDIIVFVIGGATYEEALTVYNLNRTTPGVRIVLGGTTVHNTKSFLEEVLASGLHSRSKESSQVTSRSASRR [VPS45]	0.0246	49.6	49.9	-0.166	0.581	1.21
MPRDNMASLIQRIARQACLTFRGSGGGRGASDRDAASGPEAPMQPGFPENLSKLKSLLTQLRAEDLNIAPRKATLQPLPPNLPPVTYMHIYETDGFSLGVFLLKSGTSIPLHDHPGMHGMLKVLYGTVRISCMDKLDAGGGQRPRALPPEQQFEPPLQPREREAVRPGVLRSRAEYTEASGPCILTPHRDNLHQIDAVEGPAAFLDILAPPYDPDDGRDCHYYRVLEPVRPKEASSSACDLPREVWLLETPQADDFWCEGEPYPGPKVFP [ADO]	0.474	54.1	53.7	0.0512	-2.72	-3.58
MTKFGFLRLSYEKQDTLLKLLILSMAAVLSFSTRLFAVLRFESVIHEFDPYFNYRTTRFLAEEGFYKFHNWFDDRAWYPLGRIIGGTIYPGLMITSAAIYHVLHFFHITIDIRNVCVFLAPLFSSFTTIVTYHLTKELKDAGAGLLAAAMIAVVPGYISRSVAGSYDNEGIAIFCMLLTYYMWIKAVKTGSICWAAKCALAYFYMVSSWGGYVFLINLIPLHVLVLMLTGRFSHRIYVAYCTVYCLGTILSMQISFVGFQPVLSSEHMAAFGVFGLCQIHAFVDYLRSKLNPQQFEVLFRSVISLVGFVLLTVGALLMLTGKISPWTGRFYSLLDPSYAKNNIPIIASVSEHQPTTWSSYYFDLQLLVFMFPVGLYYCFSNLSDARIFIIMYGVTSMYFSAVMVRLMLVLAPVMCILSGIGVSQVLSTYMKNLDISRPDKKSKKQQDSTYPIKNEVASGMILVMAFFLITYTFHSTWVTSEAYSSPSIVLSARGGDGSRIIFDDFREAYYWLRHNTPEDAKVMSWWDYGYQITAMANRTILVDNNTWNNTHISRVGQAMASTEEKAYEIMRELDVSYVLVIFGGLTGYSSDDINKFLWMVRIGGSTDTGKHIKENDYYTPTGEFRVDREGSPVLLNCLMYKMCYYRFGQVYTEAKRPPGFDRVRNAEIGNKDFELDVLEEAYTTEHWLVRIYKVKDLDNRGLSRT [STT3A]	-0.102	53.7	54	-0.105	1.3	3.3
MTMDGDSSTTDASQLGISADYIGGSHYVIQPHDDTEDSMNDHEDTNGSKESFREQDIYLPIANVARIMKNAIPQTGKIAKDAKECVQECVSEFISFITSEASERCHQEKRKTINGEDILFAMSTLGFDSYVEPLKLYLQKFREAMKGEKGIGGAVTATDGLSEELTEEAFTNQLPAGLITTDGQQQNVMVYTTSYQQISGVQQIQFS [NFYB]	0.036	54.5	54.5	0.064	0.178	0.0131
MSQVLFHQLVPLQVKCKDCEERRVSIRMSIELQSVSNPVHRKDLVIRLTDDTDPFFLYNLVISEEDFQSLKFQQGLLVDFLAFPQKFIDLLQQCTQEHAKEIPRFLLQLVSPAAILDNSPAFLNVVETNPFKHLTHLSLKLLPGNDVEIKKFLAGCLKCSKEEKLSLMQSLDDATKQLDFTRKTLAEKKQELDKLRNEWASHTAALTNKHSQELTNEKEKALQAQVQYQQQHEQQKKDLEILHQQNIHQLQNRLSELEAANKDLTERKYKGDSTIRELKAKLSGVEEELQRTKQEVLSLRRENSTLDVECHEKEKHVNQLQTKVAVLEQEIKDKDQLVLRTKEAFDTIQEQKVVLEENGEKNQVQLGKLEATIKSLSAELLKANEIIKKLQGDLKTLMGKLKLKNTVTIQQEKLLAEKEEKLQKEQKELQDVGQSLRIKEQEVCKLQEQLEATVKKLEESKQLLKNNEKLITWLNKELNENQLVRKQDVLGPSTTPPAHSSSNTIRSGISPNLNVVDGRLTYPTCGIGYPVSSAFAFQNTFPHSISAKNTSHPGSGTKVQFNLQFTKPNASLGDVQSGATISMPCSTDKENGENVGLESKYLKKREDSIPLRGLSQNLFSNSDHQRDGTLGALHTSSKPTALPSASSAYFPGQLPNS [SASS6]	0.537	48.2	49.3	-0.0259	0.985	0.832
MQRLQVVLGHLRGPADSGWMPQAAPCLSGAPQASAADVVVVHGRRTAICRAGRGGFKDTTPDELLSAVMTAVLKDVNLRPEQLGDICVGNVLQPGAGAIMARIAQFLSDIPETVPLSTVNRQCSSGLQAVASIAGGIRNGSYDIGMACGVESMSLADRGNPGNITSRLMEKEKARDCLIPMGITSENVAERFGISREKQDTFALASQQKAARAQSKGCFQAEIVPVTTTVHDDKGTKRSITVTQDEGIRPSTTMEGLAKLKPAFKKDGSTTAGNSSQVSDGAAAILLARRSKAEELGLPILGVLRSYAVVGVPPDIMGIGPAYAIPVALQKAGLTVSDVDIFEINEAFASQAAYCVEKLRLPPEKVNPLGGAVALGHPLGCTGARQVITLLNELKRRGKRAYGVVSMCIGTGMGAAAVFEYPGN [ACAA1]	0.126	55.1	55.3	-0.102	0.354	-0.509
MIPVAEFKQFTEQQPAFKVLKPWWDVLAEYLTVAMLMIGVFGCTLQVTQDKIICLPNHELQENLSEAPCQQLLPRGIPEQIGALQEVKGLKNNLDLQQYSFINQLCYETALHWYAKYFPYLVVIHTLIFMVCTSFWFKFPGTSSKIEHFISILGKCFDSPWTTRALSEVSGENQKGPAATERAAATIVAMAGTGPGKAGEGEKEKVLAEPEKVVTEPPVVTLLDKKEGEQAKALFEKVKKFRMHVEEGDILYTMYIRQTVLKVCKFLAILVYNLVYVEKISFLVACRVETSEVTGYASFCCNHTKAHLFSKLAFCYISFVCIYGLTCIYTLYWLFHRPLKEYSFRSVREETGMGDIPDVKNDFAFMLHLIDQYDSLYSKRFAVFLSEVSESRLKQLNLNHEWTPEKLRQKLQRNAAGRLELALCMLPGLPDTVFELSEVESLRLEAICDITFPPGLSQLVHLQELSLLHSPARLPFSLQVFLRDHLKVMRVKCEELREVPLWVFGLRGLEELHLEGLFPQELARAATLESLRELKQLKVLSLRSNAGKVPASVTDVAGHLQRLSLHNDGARLVALNSLKKLAALRELELVACGLERIPHAVFSLGALQELDLKDNHLRSIEEILSFQHCRKLVTLRLWHNQIAYVPEHVRKLRSLEQLYLSYNKLETLPSQLGLCSGLRLLDVSHNGLHSLPPEVGLLQNLQHLALSYNALEALPEELFFCRKLRTLLLGDNQLSQLSPHVGALRALSRLELKGNRLEALPEELGNCGGLKKAGLLVEDTLYQGLPAEVRDKMEEE [LRRC8E]	0.0423	53.2	53.1	-0.0391	-1.17	-1.48
MAAAAGSCARVAAWGGKLRRGLAVSRQAVRSPGPLAAAVAGAALAGAGAAWHHSRVSVAARDGSFTVSAQKNVEHGIIYIGKPSLRKQRFMQFSSLEHEGEYYMTPRDFLFSVMFEQMERKTSVKKLTKKDIEDTLSGIQTAGCGSTFFRDLGDKGLISYTEYLFLLTILTKPHSGFHVAFKMLDTDGNEMIEKREFFKLQKIISKQDDLMTVKTNETGYQEAIVKEPEINTTLQMRFFGKRGQRKLHYKEFRRFMENLQTEIQEMEFLQFSKGLSFMRKEDFAEWLLFFTNTENKDIYWKNVREKLSAGESISLDEFKSFCHFTTHLEDFAIAMQMFSLAHRPVRLAEFKRAVKVATGQELSNNILDTVFKIFDLDGDECLSHEEFLGVLKNRMHRGLWVPQHQSIQEYWKCVKKESIKGVKEVWKQAGKGLF [MICU2]	-0.297	52.1	52.1	-0.111	0.279	0.383
